Source: paper PMC10397247
Values belong to the binder of their own block, whether it stands above or below them.

Assays:
Test in all cases: two-hybrid library CCNG1;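 further: natural log of median RNA to DNA barcode read ratio; higher means stronger binding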
4H349-bN = target: T1, 4H349-bN
T1 chain: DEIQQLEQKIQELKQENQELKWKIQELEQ

4H3297-bN = target: T2, 4H3297-bN
T2 chain: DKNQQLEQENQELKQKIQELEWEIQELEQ

4H730-bN = target: T3, 4H730-bN
T3 chain: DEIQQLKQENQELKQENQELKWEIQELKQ

4H949-bN = target: T4, 4H949-bN
T4 chain: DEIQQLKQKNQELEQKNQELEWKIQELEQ

4H56-bN = target: T5, 4H56-bN
T5 chain: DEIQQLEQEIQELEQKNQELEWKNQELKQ

4H3381-bN = target: T6, 4H3381-bN
T6 chain: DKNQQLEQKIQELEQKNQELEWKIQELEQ

O11-bH = target: T7, O11-bH
T7 chain: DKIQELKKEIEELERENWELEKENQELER

4H796-bN = target: T8, 4H796-bN
T8 chain: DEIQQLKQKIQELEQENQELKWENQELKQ

4H3041-bN = target: T9, 4H3041-bN
T9 chain: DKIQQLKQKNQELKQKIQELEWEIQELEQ

4H2931-bN = target: T10, 4H2931-bN
T10 chain: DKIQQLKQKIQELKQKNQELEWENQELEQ

4H932-bN = target: T11, 4H932-bN
T11 chain: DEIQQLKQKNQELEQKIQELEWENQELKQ

4H3364-bN = target: T12, 4H3364-bN
T12 chain: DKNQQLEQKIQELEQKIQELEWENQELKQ

4H2859-bN = target: T13, 4H2859-bN
T13 chain: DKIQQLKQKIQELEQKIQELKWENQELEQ

P8A-bP = target: T14, P8A-bP
T14 chain: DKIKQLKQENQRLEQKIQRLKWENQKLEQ

P1A-bP = target: T15, P1A-bP
T15 chain: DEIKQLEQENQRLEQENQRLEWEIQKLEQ

P3A-bP = target: T16, P3A-bP
T16 chain: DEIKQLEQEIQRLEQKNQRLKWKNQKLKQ

P4A-bP = target: T17, P4A-bP
T17 chain: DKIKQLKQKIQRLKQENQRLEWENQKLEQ

P7A-bP = target: T18, P7A-bP
T18 chain: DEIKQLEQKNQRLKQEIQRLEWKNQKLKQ

P5A-bP = target: T19, P5A-bP
T19 chain: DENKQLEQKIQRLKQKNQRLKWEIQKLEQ

P6A-bP = target: T20, P6A-bP
T20 chain: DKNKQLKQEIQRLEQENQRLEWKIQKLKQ

P9A-bP = target: T21, P9A-bP
T21 chain: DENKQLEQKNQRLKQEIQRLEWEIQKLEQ

P2A-bP = target: T22, P2A-bP
T22 chain: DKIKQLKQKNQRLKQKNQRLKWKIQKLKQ

interaction score (4H349-bN): -1.06
interaction score (4H3297-bN): 0.359
interaction score (4H730-bN): -1.23
interaction score (4H949-bN): -2.31
interaction score (4H56-bN): 0.857
interaction score (4H3381-bN): -1.35
interaction score (O11-bH): 0.17
interaction score (4H796-bN): -1.23
interaction score (4H3041-bN): 0.995
interaction score (4H2931-bN): -0.613
interaction score (4H932-bN): -1.18
interaction score (4H3364-bN): -0.713
interaction score (4H2859-bN): 0.927
B1: 4H2859-bN (peptide)
chain: DKIQQLKQKIQELEQKIQELKWENQELEQ

interaction score (P8A-bP): -0.0351
interaction score (P1A-bP): -1.8
interaction score (P3A-bP): -0.629
interaction score (P4A-bP): -1.23
interaction score (P7A-bP): -0.745
interaction score (P5A-bP): -0.589
interaction score (P6A-bP): -0.151
interaction score (P9A-bP): -2.64
interaction score (P2A-bP): 1.97
B2: P1A-bP (peptide)
chain: DEIKQLEQENQRLEQENQRLEWEIQKLEQ
